Source: patent publication US11160886B2, “Method for labeling of sensitive and thermosensitive targeting biomolecules with technetium based compounds” (BRACCO IMAGING SPA, priority 2016, dated 2021)

Columns and labels:
Metabolites in the urine = format: in vivo, rats; settings: urine at 2 and 4 h p.i.
Protocol: Metabolites in the Urine.
At 2 and 4 h p.i. the urine was collected directly from the bladder and analyzed by HPLC (FIG. 12).

αvβ3 integrins = format: in vivo, NOD/SCID mice; settings: 120 min post injection
Protocol: Before injection, ^99mTc complexes were purified using a reversed-phase C18 Sep-Pack cartridge to remove the excess of unlabeled ligands. After purification, the activity recovered was further diluted with PBS to obtain a final solution that is <0.5% in EtOH content. The RCP and the stability of the purified complexes were evaluated prior to in vivo administration and for the succeeding 18 h.
Distribution in Tumor Bearing Mice.
Tumor uptake studies were performed on complex 9 in NOD/SCID mice to determine the effective capability of the complex to detect in vivo endogenously expressed αvβ3 integrins. For induction of tumor xenografts, M21 (αvβ3 positive) and M21L (αvβ3 negative) cells were subcutaneously injected at a concentration of 5×10^6 cells/mouse and allowed to grow until tumor of 3 mm is palpable. The solution containing the purified radiolabeled peptide (15 μCi/200 μL) was injected intravenously into the tail vein. The animals (n=5) were sacrificed by cervical dislocation at 2 h post injection. Tumors and other tissues (blood, heart, lung, liver, kidneys, stomach, intestine, muscle) were removed, weighed, and the activity was counted in a Nal well counter. The results were expressed as the percentage of injected activity per gram of tissue (% IA/g) and tumor to organ ratios were calculated.

[1] = Stability in RPMI1640 cell culture medium; format: physicochemical
Protocol: Before the cell experiments, the stability of the purified complex 9 in RPMI1640 medium was evaluated. The radiolabeled peptide was found stable. Data were compared with those of the ^99mTc-HYNIC-RGDfK labeled compound produced according to literature (Decristoforo C, Santos I, Pietzsch H J, Kuenstler J U, Duatti A, Smith C J, Rey A, Alberto R, Von Guggenberg E, Haubner R. Comparison of in vitro and in vivo properties of [99mTc]cRGD peptides labeled using different novel Tc-cores.Q J Nucl Med Mol Imaging. (2007), 51, 33-41).
Thus, to a glass test tube containing 990 μL of cell culture media was added 10 μL of a solution containing 10 μCi of complex 9. The mixture was vortexed and incubated at 37° C. for 2 h. At 30 min, 1 and 2 h, 100 μl of the reaction mixture were withdrawn and analyzed by HPLC chromatography. The radiochemical purity (RCP) of the complexes was found >90%.

[2] = Challenge reactions (transchelation) with excess Cys, GSH or EDTA, RCP by HPLC; format: physicochemical; settings: Cys 10 mM; for % RCP after incubation with excess Cys: 37° C.
Protocol: The transchelation studies were performed for some compounds monitoring by HPLC the radiochemical purity (RCP) of the complexes in presence of an excess of exchanging ligands over the time. The experiments were performed in triplicate.
Challenge experiments were carried out on the purified [^99mTc(N)(PNP3OH)]-labeled small size compounds (complex 1, complex 2, complex 9 and complex 10) using an excess of glutathione (GSH) or Cys. An aliquot (50 μl) of an aqueous stock solution of cysteine hydrochloride (10 mM; 1 mM) was added to a propylene test tube containing PB (250 μl, 0.2 M; pH 7.4), water (100 μl) and the selected [^99mTc(N)(PNP3OH)]-compound (100 μl). The mixture was vortexed and incubated at 37° C. for 24 h. A control reaction containing an equal volume of water, instead of cysteine hydrochloride, was studied in parallel. At 30 min, 1, 3 and 24 h, aliquots of the reaction mixture were withdrawn and analyzed by HPLC chromatography. A similar procedure was applied using GSH (50 μl, 10 mM) as challenge ligand.
For [^99mTc(N)(PNP3OH)(Cys-Gly-Lys-Gly-ApoMb)]^+ (“Cys-Gly-Lys-Gly” disclosed as SEQ ID NO: 1) additional experiments were conducted using EDTA (50 μl, 10 mM) as exchanging ligand.

Which results are given for “[^99mTc(N)(PNP3OH)(Cys-cRGDfK)]^+ [Complex 9]”?
In vivo metabolism (urine HPLC, FIG. 12) (Metabolites in the urine): remained stably incorporated into the structure of the final complex; Tumor uptake: M21 (αvβ3 integrins; M21 (αvβ3 positive) tumor, mice): 4.38±0.69 % IA/g; Tumor uptake: M21L (αvβ3 integrins; M21L (αvβ3 negative) tumor, mice): 1.05 ± 0.62 % IA/g; Biodistribution: Blood (αvβ3 integrins; tumor bearing mice): 0.03 ± 0.01 % IA/g; Biodistribution: Heart (αvβ3 integrins; tumor bearing mice): 0.44 ± 0.09 % IA/g; Biodistribution: Intestine (αvβ3 integrins; tumor bearing mice): 5.05 ± 1.24 % IA/g; Biodistribution: Kidney (αvβ3 integrins; tumor bearing mice): 3.19 ± 0.18 % IA/g; Biodistribution: Liver (αvβ3 integrins; tumor bearing mice): 3.87 ± 0.81 % IA/g; Biodistribution: Lungs (αvβ3 integrins; tumor bearing mice): 1.22 ± 0.25 % IA/g; Biodistribution: Muscle (αvβ3 integrins; tumor bearing mice): 0.20 ± 0.07 % IA/g; Biodistribution: Spleen (αvβ3 integrins; tumor bearing mice): 1.51 ± 0.22 % IA/g; Biodistribution: Stomach (αvβ3 integrins; tumor bearing mice): 0.96 ± 0.20 % IA/g; M21/blood ratio (αvβ3 integrins; tumor bearing mice): 146; M21/liver ratio (αvβ3 integrins; tumor bearing mice): 1.13; M21/lung ratio (αvβ3 integrins; tumor bearing mice): 3.59; M21/muscle ratio (αvβ3 integrins; tumor bearing mice): 21.9; Stability in RPMI1640 medium [1]: found stable; Radiochemical purity (RCP) in cell culture media ([1]; 37° C., 30 min, 1 and 2 h): > 90%; % RCP after incubation with excess Cys ([2]; 3 h): 75.93%; % RCP after incubation with excess Cys ([2]; 24 h): 27.31%; Stability toward Cys transchelation relative to neutral complexes ([2]; versus complex 1 and complex 11): higher stability toward Cys transchelation
